Target: M. tuberculosis LamA (MmpS3, Rv2198c) fused to a 3X-FLAG tag at the carboxy terminus (M. tuberculosis)
Assay: SDS-PAGE with western blot

“M. tuberculosis LamA (MmpS3, Rv2198c) fused to a 3X-FLAG tag at the carboxy terminus (natural protein)” gave a stoichiometry N of 2.
